Test results from the supplement of paper PMC12455559.
± gives the standard deviation of the averaged measurements.

Legend:
[1] = PET hydrolysis, aromatic products released after 48 h (umol product/mg enzyme); higher = more PET depolymerization activity
How it was run: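 PET hydrolysis activity was taken as the aromatic product in the supernatant and expressed per mg enzyme. This product was measured by absorbance at 260 and 280 nm against buffer blanks. Each reaction held 5 μg (50 μL) of tagless, SUMO-cleaved candidate enzyme purified on nickel beads, plus 3.5 mg amorphous PET film or crystalline PET powder in 450 μL buffer: 50 mM NaCitrate (pH 4.5, 5.5), 50 mM NaPhosphate (pH 6.5, 7.5) or glycine (pH 8.5). Plates were sealed and left 48 h at 40 or 60 °C without shaking.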

[2] = melting temperature (DSF); higher = more thermostable
How it was run: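 Values are melting temperatures from differential scanning fluorimetry. Candidate enzymes were expressed in E. coli C41(DE3), purified on nickel beads and freed by SUMO protease cleavage. In sealed PCR plates on a Bio-Rad CFX96, 45 μL enzyme (0 to 0.3 mg/mL) was combined with 5 μL 5X Sypro Orange. Fluorescence was recorded from 25 °C for 250 cycles, rising 0.3 °C per cycle at a ramp of 0.3 °C/s.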

[3] = purified protein yield per well (BCA); higher = higher soluble expression
How it was run: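 Expression was done in E. coli C41(DE3), using 2 mL autoinduction cultures with 100 µg/mL kanamycin incubated at 37 °C for 2 h and at 18 °C for 40 h. Protein was purified on Ni-charged magnetic beads and released by SUMO protease cleavage. Yield of purified protein per well was measured with the Pierce Rapid Gold BCA kit; values below 25 ug (0.1 mg/mL) are below detection.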

[4] = substrate: aFilm, 40 °C, pH 4.5
[5] = substrate: aFilm, 40 °C, pH 5.5
[6] = substrate: aFilm, 40 °C, pH 6.5
[7] = substrate: aFilm, 40 °C, pH 7.5
[8] = substrate: aFilm, 60 °C, pH 4.5
[9] = substrate: aFilm, 60 °C, pH 5.5
[10] = substrate: aFilm, 60 °C, pH 6.5
[11] = substrate: aFilm, 60 °C, pH 7.5
[12] = substrate: cryPow, 40 °C, pH 4.5
[13] = substrate: cryPow, 40 °C, pH 5.5
[14] = substrate: cryPow, 40 °C, pH 6.5
[15] = substrate: cryPow, 40 °C, pH 7.5
[16] = substrate: cryPow, 60 °C, pH 4.5
[17] = substrate: cryPow, 60 °C, pH 5.5
[18] = substrate: cryPow, 60 °C, pH 6.5
[19] = substrate: cryPow, 60 °C, pH 7.5
[20] = substrate: cryPow, 40 °C, pH 8.5
[21] = substrate: cryPow, 60 °C, pH 8.5
[22] = substrate: aFilm, 40 °C, pH 8.5
[23] = substrate: aFilm, 60 °C, pH 8.5

Sequence | PET hydrolysis [1, 4] | PET hydrolysis [1, 5] | PET hydrolysis [1, 6] | PET hydrolysis [1, 7] | PET hydrolysis [1, 8] | PET hydrolysis [1, 9] | PET hydrolysis [1, 10] | PET hydrolysis [1, 11] | PET hydrolysis [1, 12] | PET hydrolysis [1, 13] | PET hydrolysis [1, 14] | PET hydrolysis [1, 15] | PET hydrolysis [1, 16] | PET hydrolysis [1, 17] | PET hydrolysis [1, 18] | PET hydrolysis [1, 19] | melting temperature [2] | purified protein yield per well [3] | PET hydrolysis [1, 20] | PET hydrolysis [1, 21] | PET hydrolysis [1, 22] | PET hydrolysis [1, 23]
ATNPYERGPAPTGTSVAADRGPFATAQLTVAKGNGFGGGVVYYPTDTSQGTFGAIAIAPGYGTEWRWYAWLGPRLASFGFVVLGIETNSLDDYADARGAQLLSALDWLVDSSPVRDRVDRTRLAVGGHSMGGGGALTAAIQRPSLMTAIGMAPYVPDGILRTIKIPTVLFGGQTDTTVTPSYLASAYATIPATVQRAYPEIANEGHGFAAGGGGGNSGAFARTMMIWMKVFIDKDTRYTGFLCPTLSNMSGISKYQASCPLGPTSGPSQSPSSSPSSTPSSSPSSTPSVSPSSTPSASPPGGPCRATYRTVNSWSGGYQGEVTVTAGGSAVNGWTVKWALSGGQSVTQVWNGTLSASGSNVSVSNASYNGSLGAGASTTFGFLANGTPSTPSPTCTSP [ESM021] | < 3 | < 3 | < 3 | < 3 | < 3 | < 3 | < 3 | < 3 | < 3 | 4.5 ± 0.71 | 9 | 9 ± 1.4 | < 3 | < 3 | < 3 | < 3 | 68.8 C | 275 µg |  |  |  | 
QYQKGPDPTVAGLERDGTFAIRTTTVSRLSASGFGGGTIYYPTATGSYGVVAVSPGFTAYQSSISWIGSRLASHGFVVITIDTNTTSDQPDSRARQLKAALDKVVSLASSRTNVLYGKVDSSRLAVAGHSMGGGGSLAAARDYPSLKASVPLAPWHTTKSFSTVRVPTLIVGADGDTVASVTSHSIPFYTSIPSSTPKGYLELNNEDHFFPQDSGEYGLVGKYMISWFKRFVDSDTRYSPFLCGAPHQTQIANTLRVSDSRTNCPY [DP038] |  |  |  |  |  |  |  |  |  | 6 | 55 | 59 |  | < 3 | < 3 | < 3 | 56.2 C | 54 µg | 54 | < 3 |  | 
DEIGQAPTASNITGNGSFATTSASISSTVAGFGGGRVYYPTATGTYPVIAISPGFTATWSSLSWIGPRLSSWGFVVVGIETNSIYDQPGSRGSQLLAALNWAVSSSPTAVRSRVDGSRRGVAGHSMGGGGTLEALAADTSGLVKAGVPLAPWNSDKTWNNVSEPVLIVGGQSDTIAPVSSHSVPFYNTLAGPKTYVELTGASHFFPQSSNATTSRALVSWFKRWLNQDSRFTPFTCGFSGAAVSSFRTNAC [ESM093] |  |  |  |  |  |  |  |  | < 3 | 25 | 44 | 72 | < 3 | 7 | 23 | 39 | 65.2 C | 93.2 µg |  |  |  | 
TDNPHQRGPNPSQASISANRGTFATAETSVGSGNGFGAAKIYYPTDTGQGTFGAIAVSPGYTATWAAEGAWMGHWLASFGFVVIGIDTINRNDFDVARGTQLLAALDYLTQRSSVRTRVDPSRLAVMGHSMGGGGTISAALRRPTLKAAIGLAPYSPSQTTTGMQVPTVLLAGQNDGTSTPASIITLHNNIPASTEKAYLELTGAGHGFPTSNNSVVTRKVIPWMKIFIDQDTRYTQFLCPLQDWTGIRSYRNSCPLLPNDPGTTFSLAGSASGKCVDVPGRVQTNGTGLIIWTCNGAANQHWTRTAAGELRIYGNSKCMDASGQGARVTINSCNGGSGQKWTVGTNGTVTNAASAGCLDTGGTADNAPVIVTTCNGGSGQIWIKRS [ESM184] |  |  |  |  |  |  |  |  | < 3 | < 3 | < 3 | < 3 |  |  |  |  | 43 C | 34 µg |  |  |  | 
ADNPYQRGPDPTPALVASVNGPFATASVSVPAGYGFGGGMIYYPTDTSQGTFGGIAISPGYTALFSAELAWMGPWLASHGFVVIGIETNNRNDFDEARGTQLLAALDYLTQQSPVRNRVDPNRLAVAGHSMGGGGALNAAIRRPSLKAAVGLAPFSPSSNLANDRVPTMVFSGQQDTVVTPSYVTGLYNSLPSTTQSAYLEIAGGDHGFPVGRPNQVMIRTMLPFVKIFVDYDTRYSPFLCPLSDTSGVVTYRSTCPLTPPGLPTTPPTTPPTTVPTSPPTGGPTTPPTTPSQPGGACTATYRTVNSWPGGFQGEVTVTAGNSAINGWTVRWTLDSGQAITQVWNGEVSTSGSTVSVRNAPYNGSLPPSGSTTFGFLSSGSPSSPSLTCTSP [DP059] |  | < 3 | < 3 | < 3 |  | 2 ± 2.8 | < 3 | < 3 |  | 5.5 ± 0.71 | 21.5 ± 3.5 | 35 ± 2.8 |  | 32.5 ± 2.1 | 47 ± 8.5 | 19.5 ± 3.5 | 74.2 C | 255 µg | 32.5 ± 3.5 | 34 ± 1.4 | < 3 | < 3
AENPYQRGPDPTLAALAASAGPYPIMETVVGSAEVTNFGGASIYYPAGTADGTFGGVAVTPGFLGPRSTMEWVARRVASHGFVVINIDTLERNDTPPLRARQMLAALDYLTGASAVRDRVDPTRLAVMGHSMGGGGSLQASRQRPQLKAAVPLTPWSNDKDFSADVVPTLIIGAELDDTAPVAEHAEPFFESIAAARKAYLELNDAEHRAPIRTNETIGTYSVAWLKRFVDDDTRYEQFLCPPPAPSAAIEEFRGTCPSS [TEP106] |  |  |  |  |  |  |  |  | < 3 | < 3 | < 3 | < 3 | < 3 | < 3 | < 3 | < 3 | 41.5 C | 87.7 µg |  |  |  | 
ADNPFQRGPDPTRASVAAQTGPFANASVSVPTGYGFNGGRIYYPTDTSQGTFGAIAISPGYTALFSAELAWMGPWLASHGFVVIGIETNSRNDFDTARGTQLLAALDYLTQQSPVRDRVDPNRLAVSGHSMGGGGALSAASRRSSLKAAVGITPYSPSSNLANDRVPTMIISGQADTVVTPSYALGLYNSLPATTESVYLEVAGGDHGFMVGRSNPVMIRTMLPFVKMFIDNDTRYSQFLCPLADSSGVVTYRSTCPLLPGAPTTPPTTPPTDSPGSAGEIVGTQSGRCIDVPNAARDNGTRVQLYDCNKQPNQSWTYTSNKQLQVYGDRCLDAAGSGNGAAVQIYSCHSQTNQQWNLNSNGTISNVQSGRCLDVWSTANGAQVQLYDCHGQTNQQFRLASRTR [DP061] |  | < 3 | < 3 | < 3 |  | < 3 | < 3 | < 3 |  | 14 ± 2.8 | 20 ± 1.4 | 7.5 ± 5 |  | < 3 | < 3 | < 3 | 59.8 C | 265 µg | 2 ± 2.8 | < 3 | < 3 | < 3
ATTSFQRGPAPTTASIQATSGPFATSQTTVSRISVTGFGGGDIYYPTSTSSGTFGAVAIAPGYTALRSSMAWLAPRIASQGFVVFNIDTLTTSDQPATRGTELLAALDYLTTRSTVRTRIDTTRLAVMGHSMGGGGTLEAAKSRPSLQAAIPLTPWDLNKSFAGLAVPTLIIGAQADTVAPVSQHAKPFFTSLPSGLDKAYLELAGASHFAPNTSNTTIASISIAWLKRFVDDDTRYDQFLCPGPTVGTAVSQFTTNCPHIS [ESM156] | < 3 | < 3 | < 3 | < 3 | < 3 | < 3 | < 3 | < 3 | < 3 | 9.5 ± 0.71 | 14.5 ± 5 | < 3 | < 3 | < 3 | < 3 | < 3 | 40.6 C | 272 µg |  |  |  | 
FSAPGPSAPCSNCTRGPAPTVASLKASSGPFSTAKFSVSGYLKGFGNSTVYYPTNTSGKMGAIAVIPGYLSYESSIEWWGPRLASHGFVVMTMNTNSIYDQPDSRATQLSKALDYLISQSGSSSSPIYGKVDSSRLGAIGWSMGGGGSLKLSTQRSINAIIPQAPWYLGSNTFNTIKTPALILACSADTVAPVYQHASPFYNRIPTSTPKAFLEIYGGSHFCANSGYPNEDLLGMYGIAWMKRFIDFDSRYSQFLCGPNHESDYAISEYRQNCPY [ESM017] |  |  |  |  |  |  |  |  | < 3 | < 3 | 11 | 33 |  |  |  |  | 56.5 C | 53.8 µg |  |  |  | 
AVHGPDPTDALLEASRGPYATAQIDVSALAVSGFGGGTIYYPTTTSEGTFGGVAIAPGYTADKSSLAWLAARLASHGFVVFNIDTLTRLDQPDSRGRQLLAALDYLTQRSSVRSRVDASRLGVMGHSMGGGGTLEAAVSRPSLRAAVPLTPWNLDKTWPEVRTPTLIIGADLDTIAPVLTHAEPFYASLPSTLDKAYLELNNATHFAPNITDTTIGKYAVAWMKRFIDDDTRYNRFLCPGPSWSLSVEEYRSTCPF [TEP061] | < 3 | < 3 | < 3 | < 3 | < 3 | < 3 | < 3 | < 3 | < 3 | < 3 | < 3 | 2 ± 2.8 | < 3 | < 3 | < 3 | < 3 | 51.4 C | 299 µg |  |  |  | 
MAAANPYQRGPDPTLASVAATNGPFATAQMTVPPGNGFNGGYIYYPTDTSLGTWGAVAIVPGYTALFKNEEAWMGPRLASFGFVVIGIETNSRTDFDTARGTQLLAALDYLTQKSAVRNRVDPGRLGVIGHSMGGGGALVAATQRPSLKAAVGLAPFKPSGNLANDRVPTMFIAGNRDTVVTPSYLDGLYGSLPAATKKAYVQINGADHLFATKPNTVEMRTLIPWLKIFLDNDTRYSQFLCPTLLDKTGVSMYRGTCPLI [TEP109] | 7 ± 1.4 | 12.5 ± 2.1 | 10.5 ± 2.1 | < 3 | < 3 | 2 ± 2.8 | < 3 | < 3 | 28.5 ± 0.71 | 43 ± 1.4 | 67 ± 7.1 | 65.5 ± 3.5 | 12.5 ± 2.1 | 47 ± 1.4 | 23 ± 4.2 | 5.5 ± 0.71 | 61.6 C | 285 µg |  |  |  | 
ADNPYQRGPDPTRTSVTAVNGPFANTSVSVPTGYGFNGGRIYYPTDTSQGTFGAIAISPGYTALFSAELAWMGPWLASHGFVVIGIETNSRNDFDTARGTQLLAALDYLTQQSPVRDRVDPNRLAVAGHSMGGGGALSAATRRSSLKAVVGIAPYSPSSNLANDRVPTMIFAGQADTVVTPSYATNLYNSLPTTTESVYLEVAGADHGFMVGRSNPVMVRTMLPFVKMFVDNDTRYSQFLCPLADSSGVVTYRSTCPLLPSTPTTPTATPTNTPTPTASPTVPPGSASQIVGTQSGRCIDVPNASHTNGTRVALYDCNRQSNQSWTYTSTKQLQVYGTMCLDAAGSGNGAAVQIYGCHSQTNQQWNVNSNGTISSVQSGRCLDVWSTANGAQVQLYDCHGQTNQQFRLVSLAR [ESM137] |  |  |  |  |  |  |  |  | 10 | 18 | 17 | 8 | < 3 | < 3 | < 3 | < 3 | 62.2 C | 140 µg |  |  |  | 
